Measurements reported in patent US20200140566A1 (CLEVELAND CLINIC FOUNDATION, published 2020).
Several values for one entry are separate records, joined by “and”; a condition that tells them apart may be missing. Equal entries are not always repeated.

T1: CD6 on Jurkat cells (human, UniProt P30203 18-668)
T1 construct: whole, on cells; the target is inferred from the antibodies' specificity
T1 sequence (looked up): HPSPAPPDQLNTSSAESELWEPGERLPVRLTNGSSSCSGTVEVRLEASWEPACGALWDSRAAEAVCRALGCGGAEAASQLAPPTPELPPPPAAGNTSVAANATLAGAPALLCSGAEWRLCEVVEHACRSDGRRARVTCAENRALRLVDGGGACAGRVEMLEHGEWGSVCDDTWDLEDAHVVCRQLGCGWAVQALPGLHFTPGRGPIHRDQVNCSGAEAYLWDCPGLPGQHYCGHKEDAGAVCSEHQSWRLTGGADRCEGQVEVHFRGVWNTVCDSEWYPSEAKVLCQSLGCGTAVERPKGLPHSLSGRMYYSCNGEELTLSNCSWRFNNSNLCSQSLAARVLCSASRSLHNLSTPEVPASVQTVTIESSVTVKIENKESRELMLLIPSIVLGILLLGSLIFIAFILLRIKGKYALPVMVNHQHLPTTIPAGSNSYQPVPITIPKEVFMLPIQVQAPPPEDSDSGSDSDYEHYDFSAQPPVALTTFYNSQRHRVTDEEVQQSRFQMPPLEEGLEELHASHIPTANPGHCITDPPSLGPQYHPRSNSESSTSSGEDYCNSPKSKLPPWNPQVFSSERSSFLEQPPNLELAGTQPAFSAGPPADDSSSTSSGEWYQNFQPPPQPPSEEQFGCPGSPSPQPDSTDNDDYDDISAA

T2: rhCD6-Fc (human, UniProt P30203 25-398, limits assumed)
T2 construct: also called rhCD6-Fc chimera; antigen rhCD6-Fc; not shown: Fc part
T2 sequence (looked up): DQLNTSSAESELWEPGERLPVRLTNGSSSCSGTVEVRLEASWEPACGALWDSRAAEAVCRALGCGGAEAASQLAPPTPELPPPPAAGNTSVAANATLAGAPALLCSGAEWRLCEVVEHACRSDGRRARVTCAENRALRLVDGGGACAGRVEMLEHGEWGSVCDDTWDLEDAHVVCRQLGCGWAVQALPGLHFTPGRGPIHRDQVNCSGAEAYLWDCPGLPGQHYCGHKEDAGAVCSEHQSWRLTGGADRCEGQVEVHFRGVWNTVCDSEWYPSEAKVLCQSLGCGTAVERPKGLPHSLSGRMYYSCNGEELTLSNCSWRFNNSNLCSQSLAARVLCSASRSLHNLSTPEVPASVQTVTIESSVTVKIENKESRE


What was measured:
CD6 on Jurkat cells [1] = molecular target: T1, CD6 on Jurkat cells; test: flow cytometry titration of direct binding on Jurkat cells (the filing calls the midpoint IC50), GraphPad Prism
Method: (§1) Flow cytometric analysis was performed using the purified antibodies. Jurkat cells were grown to 70-80% confluence and harvested by centrifuge. About 4×10⁵ cells per well were washed with PBS twice. 200 μl of the culture supernatant was added to the cells and incubated at room temperature for 1 hour. After washing with PBS, antibody was added to the cells for the detection of bound humanized IgG. After 30 minutes incubation, the cells were washed twice with PBS and resuspended in PBS. Cells were analyzed for IgG binding by using FACS Calibur (BD Bioscience, San Jose, Calif.) and Flowjo software. The IC₅₀ was analyzed by GraphPad Prism.
(§2) The FACS binding assay was also performed for validation of the Jurkat cell/humanized antibody interaction. Three humanized antibodies show almost equal Jurkat cell binding activity as parent antibody.

CD6 on Jurkat cells [2] = molecular target: T1, CD6 on Jurkat cells; test: flow cytometry on Jurkat cells, antibody at 3.2 pM
Method: as §1, §2

CD6 on Jurkat cells [3] = molecular target: T1, CD6 on Jurkat cells; test: flow cytometry on Jurkat cells, antibody at 10000 pM
Method: as §1, §2

CD6 on Jurkat cells [4] = molecular target: T1, CD6 on Jurkat cells; test: flow cytometry on Jurkat cells, antibody at 0 pM (background)
Method: as §1, §2

CD6 on Jurkat cells [5] = molecular target: T1, CD6 on Jurkat cells; test: flow cytometry on Jurkat cells, antibody at 2000 pM
Method: as §1, §2

CD6 on Jurkat cells [6] = molecular target: T1, CD6 on Jurkat cells; test: flow cytometry on Jurkat cells, antibody at 400 pM
Method: as §1, §2

rhCD6-Fc [7] = molecular target: T2, rhCD6-Fc; test: SPR (BIAcore T200, 25 C), rhCD6-Fc immobilised on CM5, IgG injected, apparent KD = kd/ka
Method: (§3) IgG antibodies were injected through flow cells at a flow rate of 30 μl/min with the concentration ranging from 0.11-27 nM (three-fold serial dilution). Association time was 700 s followed by 3600 s dissociation. At the end of each cycle, sensor surface was regenerated with 10 mM Glycine-HCl, pH 2.0 (100 μl/min, 12 s for 3 times). Responses of reference flow cell and buffer-only injection were double-subtracted from rhCD6-Fcflow cell during each antigen injection cycle. The data of dissociation (kd) and association (ka) rate constants were obtained by fitting binding data to 1:1 binding model using Biacore T200 evaluation software. The apparent equilibrium dissociation constants (KD) were calculated from the ratio of kd over ka.
(§4) Affinity analysis of antigen-antibody interaction. Binding data of each antibody was processed and fitted to 1:1 binding model using Biacore T200 evaluation software. All experiment data could be perfectly fitted to the model (FIG. 14).

rhCD6-Fc [8] = molecular target: T2, rhCD6-Fc; test: SPR (BIAcore T200, 25 C), rhCD6-Fc immobilised on CM5, IgG injected 0.11-27 nM, 1:1 fit; column head misprinted 'Kd (1/Ms)'
Method: as §3, §4

CD6 on Jurkat cells [9] = molecular target: T1, CD6 on Jurkat cells; test: flow cytometry on Jurkat cells, antibody at 80 pM
Method: as §1, §2

CD6 on Jurkat cells [10] = molecular target: T1, CD6 on Jurkat cells; test: flow cytometry on Jurkat cells, antibody at 16 pM
Method: as §1, §2

rhCD6-Fc [11] = molecular target: T2, rhCD6-Fc; test: SPR (BIAcore T200), Fab-SASA from culture medium captured on immobilised BSA, rhCD6-Fc injected, 1:1 fit of off-rate
Method: BSA was immobilized onto the sensor chip using amine coupling method. The selected Fab-SASA clones secreted to the culture medium were injected and captured by BSA via SASA (capture phase). After equilibration, antigen rhCD6-Fc was injected for 240 seconds (association phase) followed by the injection of running buffer for 720 seconds (dissociation phase). The surface was regenerated before the injection of another three Fab-SASA clones. The process was repeated until all antibodies were analyzed. Responses of reference flow cell were subtracted from those of Fab-SASA flow cells during each cycle. The binding curves of Fab-SASA clones were aligned at the start of association and normalized at 20 seconds after the stop of antigen injection using the BIAcore T200 evaluation software in order to display a more visualized comparison of antibodies. The off-rates of Fab-SASA clones were obtained from fitting the experimental data locally to 1:1 binding model. The antibodies were ranked by their dissociation rate constants Single cycle kinetics measurement was performed to verify the affinity ranking result. The selected Fab-SASA clones secreted to the culture medium were injected and captured by BSA via SASA (capture phase). After equilibration, a series of concentrations of antigen rhCD6-Fc (1, 3, 9, 27 and 81 nM) were injected for 500 seconds (association phase) followed by the injection of running buffer for 3000 seconds (dissociation phase). The surface was regenerated before another injection of Fab-SASA clones. Responses of reference flow cell and buffer-only injection were double-subtracted from those of Fab-SASA flow cells during each antigen injection cycle. The binding data were fitted to 1:1 binding model using the BIAcore T200 evaluation software.
Five back-mutation clones were constructed based on sequence of Fab2 and homology modeling. Each of DNA sequence encoding the five Fab fragments was inserted into pFASEBA vector for screening of the lead antibodies. The five clones along with Fab2 were screened against rhCD6-Fc for binding test and subsequent off-rate analysis by the BIAcore T200. Three clones were selected for IgG production and characterization due to the low dissociation rate using the BIAcore T200 evaluation software (Table 3).

EC50 (CD6 on Jurkat cells [1])	MFI (CD6 on Jurkat cells [2])	MFI (CD6 on Jurkat cells [3])	MFI (CD6 on Jurkat cells [4])	MFI (CD6 on Jurkat cells [5])	MFI (CD6 on Jurkat cells [6])	Kd (rhCD6-Fc [7])	koff (rhCD6-Fc [8])	kon (rhCD6-Fc [8])	MFI (CD6 on Jurkat cells [9])	MFI (CD6 on Jurkat cells [10])	koff (rhCD6-Fc [11])	Binder
0.197 nM	6.68	45.2	5.45	44.1	35.3	0.032 nM	2.1e-05 s⁻¹	650000 M⁻¹ s⁻¹	14.8	7.9		Humanized IgG6 (from Fab6) (antibody, V domains shown, Human IgG1 / kappa) VH: QVQLQESGPGLVKPSETLSLTCTVSGFSLSRYSVHWIRQPPGKGLEWIGLIWGGGFTDYNSALKSRVTISKDNSKNQVSLKLSSVTAADTAVYYCAREGVAYWGQGTLVTVSS VL: DVVMTQSPLSLPVTLGQPASISCKSSQSLLNSDGRTYLNWFQQRPGQSPRRLIYLVSKLDSGVPDRFSGSGSGTDFTLKISRVEAEDVGVYYCWQGTHFPFTFGPGTKVDIKR
											2.1e-05 s⁻¹	Fab2 (Fab, V domains shown, Tested as Fab-SASA secreted into culture medium (pFASEBA vector); also called back-mutation 2; Fab2 clone from CDR grafting) VH: QVQLQESGPGLVKPSETLSLTCTVSGFSLSRYSVHWVRQPPGKGLEWLGLIWGGGFTDYNSALKSRLTISKDNSKNQVSLKLSSVTAADTAVYYCAREGVAYWGQGTLVTVSS VL: DVVMTQSPLSLPVTLGQPASISCKSSQSLLNSDGRTYLNWFQQRPGQSPRRLIYLVSKLDSGVPDRFSGSGSGTDFTLKISRVEAEDVGVYYCWQGTHFPFTFGPGTKVDIK
											0.00089 s⁻¹	Fab7 (Fab, V domains shown, Tested as Fab-SASA secreted into culture medium; also called back-mutation 7) VH: QVQLQESGPGLVKPSETLSLTCTVSGGSISRYSVHWVRQPPGKGLEWLGLIWGGGFTDYNSALKSRLTISVDTSKNQFSLKLSSVTAADTAVYYCAREGVAYWGQGTLVTVSS VL: DVVMTQSPLSLPVTLGQPASISCKSSQSLLNSDGRTYLNWFQQRPGQSPRRLIYLVSKLDSGVPDRFSGSGSGTDFTLKISRVEAEDVGVYYCWQGTHFPFTFGPGTKVDIK
											3.1e-05 s⁻¹	Fab6 (Fab, V domains shown, Tested as Fab-SASA secreted into culture medium; also called back-mutation 6) VH: QVQLQESGPGLVKPSETLSLTCTVSGFSLSRYSVHWIRQPPGKGLEWIGLIWGGGFTDYNSALKSRVTISKDNSKNQVSLKLSSVTAADTAVYYCAREGVAYWGQGTLVTVSS VL: DVVMTQSPLSLPVTLGQPASISCKSSQSLLNSDGRTYLNWFQQRPGQSPRRLIYLVSKLDSGVPDRFSGSGSGTDFTLKISRVEAEDVGVYYCWQGTHFPFTFGPGTKVDIK
											0.00053 s⁻¹ and 0.00056 s⁻¹	Fab5 (Fab, V domains shown, Tested as Fab-SASA secreted into culture medium; also called Fab5 R; back-mutation 5) VH: QVQLQESGPGLVKPSETLSLTCTVSGGSLSRYSVHWVRQPPGKGLEWLGLIWGGGFTDYNSALKSRLTISVDTSKNQFSLKLSSVTAADTAVYYCAREGVAYWGQGTLVTVSS VL: DVVMTQSPLSLPVTLGQPASISCKSSQSLLNSDGRTYLNWFQQRPGQSPRRLIYLVSKLDSGVPDRFSGSGSGTDFTLKISRVEAEDVGVYYCWQGTHFPFTFGPGTKVDIK
0.275 nM	6.18	42.7	5.45	45	31	0.042 nM	1.3e-05 s⁻¹	320000 M⁻¹ s⁻¹	10.9	6.8		Humanized IgG2 (from Fab2) (antibody, V domains shown, VH2-hIgG1CH and VL-hIgKCL (human IgG1 / kappa)) VH: QVQLQESGPGLVKPSETLSLTCTVSGFSLSRYSVHWVRQPPGKGLEWLGLIWGGGFTDYNSALKSRLTISKDNSKNQVSLKLSSVTAADTAVYYCAREGVAYWGQGTLVTVSS VL: DVVMTQSPLSLPVTLGQPASISCKSSQSLLNSDGRTYLNWFQQRPGQSPRRLIYLVSKLDSGVPDRFSGSGSGTDFTLKISRVEAEDVGVYYCWQGTHFPFTFGPGTKVDIKR
0.185 nM	6.45	46.7	5.45	44.4	37	0.038 nM	1.3e-05 s⁻¹	350000 M⁻¹ s⁻¹	15	7.65		Humanized IgG4 (from Fab4) (antibody, V domains shown, VH4-hIgG1CH and VL-hIgKCL (human IgG1 / kappa; 'IgG4' is the clone number, not the isotype)) VH: QVQLQESGPGLVKPSETLSLTCTVSGFSISRYSVHWIRQPPGKGLEWIGLIWGGGFTDYNSALKSRVTISKDNSKNQVSLKLSSVTAADTAVYYCAREGVAYWGQGTLVTVSS VL: DVVMTQSPLSLPVTLGQPASISCKSSQSLLNSDGRTYLNWFQQRPGQSPRRLIYLVSKLDSGVPDRFSGSGSGTDFTLKISRVEAEDVGVYYCWQGTHFPFTFGPGTKVDIKR
											1.9e-05 s⁻¹	Fab4 (Fab, V domains shown, Tested as Fab-SASA secreted into culture medium; also called back-mutation 4) VH: QVQLQESGPGLVKPSETLSLTCTVSGFSISRYSVHWIRQPPGKGLEWIGLIWGGGFTDYNSALKSRVTISKDNSKNQVSLKLSSVTAADTAVYYCAREGVAYWGQGTLVTVSS VL: DVVMTQSPLSLPVTLGQPASISCKSSQSLLNSDGRTYLNWFQQRPGQSPRRLIYLVSKLDSGVPDRFSGSGSGTDFTLKISRVEAEDVGVYYCWQGTHFPFTFGPGTKVDIK
